This note sets out measurements from publication PMC10733476, “OsDWARF10, transcriptionally repressed by OsSPL3, regulates the nutritional metabolism of polished rice”.

This data set concerns the target T1, OsSPL3 (Oryza sativa (indica, Minghui63; stated …, UniProt A2X0Q6 1-469).
T1 sequence: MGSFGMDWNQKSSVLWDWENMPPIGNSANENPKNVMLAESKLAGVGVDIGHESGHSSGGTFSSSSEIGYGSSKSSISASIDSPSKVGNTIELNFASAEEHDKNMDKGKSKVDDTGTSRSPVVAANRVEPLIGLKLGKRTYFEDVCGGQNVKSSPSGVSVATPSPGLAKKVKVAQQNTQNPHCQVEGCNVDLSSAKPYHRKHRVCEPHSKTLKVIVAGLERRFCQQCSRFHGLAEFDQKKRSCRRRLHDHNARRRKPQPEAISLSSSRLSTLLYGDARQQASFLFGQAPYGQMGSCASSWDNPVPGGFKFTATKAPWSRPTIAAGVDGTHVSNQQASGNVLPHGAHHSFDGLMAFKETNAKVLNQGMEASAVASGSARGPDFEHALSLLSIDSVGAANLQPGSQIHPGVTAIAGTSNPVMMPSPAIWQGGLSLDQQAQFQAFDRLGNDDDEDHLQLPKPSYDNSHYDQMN
In words: EMSA; EMSA binding buffer (as printed, probably a concentrated stock): 125 mM Tris-HCl pH 8.0, 750 mM NaCl, 25 mM MgCl2, 100 mg/mL BSA, 50% glycerol, 5 mM DTT, 125 ng/uL salmon sperm DNA; 25 C, 20 min; 6% PAGE in 0.5x TG. Conditions: protein: recombinant; tags: N-terminal 6xHis (pET28A); label: 5' FAM on F strand; blunt.

B1: D10 S1 (dsDNA)
DNA 1: CTCACACATGCTACTGATGATGTACGTACGGACGTTACGTAGCGCGCGGG
DNA 2: CCCGCGCGCTACGTAACGTCCGTACGTACATCATCAGTAGCATGTGTGAG
On to B1, for which the binding result is listed as “binds”.

B2: D10 S2 (dsDNA)
DNA 1: CCACGCCCCACGTAACGTAGCGTACAGTGTACACCTGATTTCGCTCGGTC
DNA 2: GACCGAGCGAAATCAGGTGTACACTGTACGCTACGTTACGTGGGGCGTGG
Take B2: the binding result is “binds”.
